We go through 1 molecule from publication doi:10.1101/2022.01.24.477625 (bioRxiv, 2022).

This assay addresses SARS-CoV-1 spike protein (FL-GCN4-Avi-His, biotinylated) (SARS-CoV-1 (SARS-CoV), strain , UniProt P59594, stabilised, biotin on the Avi tag). Briefly: BLI. A general note: In BLI a coated tip is dipped into the sample, and binding shifts an interference pattern.

B1: CV27 IgG (antibody, V domains shown)
VH: QVQLVESGGGVVQPGRSLRLSCAASGFTFSSYAMHWVRQAPGKGLEWVALISYDGSNKYYADSVKGRFTISRDNSKNTLYLQMNSLRAEDTAVYYCARSFGGSYYYGMDVWGQGTTVTVSS
VL: QSALTQPASVSGSPGQSITISCTGTSSDVGGYNYVSWYQQHPGKAPKLMIYDVSNRPSGVSNRFSGSKSGNTASLTISGLQAEDEADYYCSSYTSSSTPYVFGTGTKVTVL
Regarding B1, the binding result is recorded as “binds”.
